# T1: human 5T4 (SPR and epitope mapping, construct not stated) (human, UniProt Q13641 32-355, limits assumed)
# T1 construct: also called h5T4
# T1 sequence (looked up): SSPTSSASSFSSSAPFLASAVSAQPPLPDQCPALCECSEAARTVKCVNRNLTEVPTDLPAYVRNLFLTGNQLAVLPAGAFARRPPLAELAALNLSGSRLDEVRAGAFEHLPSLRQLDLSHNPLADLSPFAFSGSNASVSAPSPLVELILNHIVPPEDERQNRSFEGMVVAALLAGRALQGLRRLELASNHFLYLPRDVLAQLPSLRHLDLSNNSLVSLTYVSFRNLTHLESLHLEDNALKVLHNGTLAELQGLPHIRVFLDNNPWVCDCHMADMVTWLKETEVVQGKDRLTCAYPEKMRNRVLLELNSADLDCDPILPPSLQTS
# T2: cynomolgus 5T4 (cynomolgus monkey, UniProt Q4R8Y9 32-355, limits assumed)
# T2 construct: also called Cynomolgus monkey 5T4
# T2 sequence (looked up): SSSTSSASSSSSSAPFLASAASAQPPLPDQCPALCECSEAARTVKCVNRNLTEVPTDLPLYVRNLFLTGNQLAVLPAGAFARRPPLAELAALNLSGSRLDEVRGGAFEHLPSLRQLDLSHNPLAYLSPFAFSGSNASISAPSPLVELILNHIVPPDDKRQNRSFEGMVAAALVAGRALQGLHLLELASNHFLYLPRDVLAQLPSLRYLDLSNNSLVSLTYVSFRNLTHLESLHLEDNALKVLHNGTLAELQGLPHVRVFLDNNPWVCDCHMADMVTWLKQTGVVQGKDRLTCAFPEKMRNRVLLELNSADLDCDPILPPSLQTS
# T3: human 5T4 on the cell surface (human, UniProt Q13641 32-420)
# T3 sequence (looked up): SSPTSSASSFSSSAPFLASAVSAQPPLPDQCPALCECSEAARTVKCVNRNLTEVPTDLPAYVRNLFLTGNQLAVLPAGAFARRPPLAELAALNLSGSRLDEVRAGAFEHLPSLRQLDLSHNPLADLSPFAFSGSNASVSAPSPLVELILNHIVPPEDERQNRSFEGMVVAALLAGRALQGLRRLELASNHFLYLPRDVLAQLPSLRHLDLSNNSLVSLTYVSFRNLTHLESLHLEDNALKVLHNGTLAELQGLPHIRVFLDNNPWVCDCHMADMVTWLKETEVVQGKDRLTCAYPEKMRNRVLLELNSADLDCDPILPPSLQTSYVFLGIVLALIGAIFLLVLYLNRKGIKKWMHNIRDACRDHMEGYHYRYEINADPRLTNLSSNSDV
# Columns and labels:
# [1] = biological target: T1, human 5T4 (SPR and epitope mapping, …); assay: SPR
# Protocol: (§1) Briefly, SPR was performed using a Biacore 8K instrument at physiological temperature of 37° C. Briefly, human Fc specific antibodies were covalently immobilized at a density of about 8000-10000 resonance units (RU) on carboxy methyl dextran matrix of a CM5 biosensor chip to create an anti-hFc IgG chip. Samples were injected on the anti-hFc IgG chip at a flow rate of 10 μL/min for 60 seconds. Protein was serially diluted (300 nM-0.14 nM) in three-fold dilutions with running buffer and injected at a flow rate of 30 μl/min over the captured test articles. Association was monitored for 240-300 seconds, and dissociation was monitored for 300-900 seconds. Surfaces were regenerated between cycles with three pulses of 10 mM glycine-HCl (pH 1.7) injected for 20 seconds at 100 μL/min.
# [2] = biological target: T2, cynomolgus 5T4; assay: SPR
# Protocol: as §1
# [3] = biological target: T3, human 5T4 on the cell surface; assay: cell-based or functional assay
# [4] = biological target: T3, human 5T4 on the cell surface; assay: cell-based or functional assay; remark: listed apart in the source
# [5] = biological target: T3, human 5T4 on the cell surface; assay: flow cytometry on HT29 cells (5,000 5T4 per cell)
# [6] = biological target: T3, human 5T4 on the cell surface; assay: flow cytometry on H1703 cells (15,000 5T4 per cell)
# [7] = biological target: T3, human 5T4 on the cell surface; assay: flow cytometry on H1975 cells (22,000 5T4 per cell)
# [8] = biological target: T3, human 5T4 on the cell surface; assay: flow cytometry on HCT116 cells (14,000 5T4 per cell)
# [9] = biological target: T3, human 5T4 on the cell surface; assay: flow cytometry on KYSE-30 cells (61,000 5T4 per cell)
# [10] = biological target: T3, human 5T4 on the cell surface; assay: flow cytometry on Detroit 562 cells (21,000 5T4 per cell)
# [11] = biological target: T1, human 5T4 (SPR and epitope mapping, …); assay: SPR, h5T4 binding; sample stressed in HST pH 6, 7 days 50 °C
# [12] = biological target: T1, human 5T4 (SPR and epitope mapping, …); assay: SPR, h5T4 binding; sample stressed in Tris pH 9, 7 days 40 °C
# [13] = biological target: T1, human 5T4 (SPR and epitope mapping, …); assay: SPR, h5T4 binding; sample stressed in acetate pH 4, 7 days 40 °C
# [14] = biological target: T1, human 5T4 (SPR and epitope mapping, …); assay: SPR, Biacore 8K, 37 °C, TriNKET captured on anti-hFc chip, pH 7.4
# Protocol: as §1
# [15] = biological target: T3, human 5T4 on the cell surface; assay: cell binding assay on 5T4-expressing tumor cells (cell line not given)
binder,measurement,setting,value
"AB1310/AB1783-TriNKET® (bispecific antibody, human IgG1, kappa, also called AB1310-TriNKET®; AB1783 10F10 F3′ LH H(T62S) CHO opt) DIQLTQSPSSLSASVGDRVTITCRASQSVTTSNYNYMHWFQQKPGKAPKLLIKFASNLESGVPSRFSGSGSGTDFTLTISSLQPEDFATYYCQHSWEIPWTFGCGTKVEIKGGGGSGGGGSGGGGSGGGGSEVQLVESGGGLVKPGGSLRLSCAASRFTFSDFGMHWVRQAPGKCLEWVSYISSGSSTIYYADSVKGRFTISRDNAKNSLYLQMNSLRAEDTAVYYCASSQSYYRGTLDYWGQGTTVTVSSASDKTHTCPPCPAPELLGGPSVFLFPPKPKDTLMISRTPEVTCVVVDVSHEDPEVKFNWYVDGVEVHNAKTKPREEQYNSTYRVVSVLTVLHQDWLNGKEYKCKVSNKALPAPIEKTISKAKGQPREPRVYTLPPCRDELTKNQVSLTCLVKGFYPSDIAVEWESNGQPENNYKTTPPVLVSDGSFTLYSKLTVDKSRWQQGNVFSCSVMHEALHNHYTQKSLSLSPG heavy: EVQLVESGGGLVKPGGSLRLSCAASGFTFSSYSMNWVRQAPGKGLEWVSSISSSSSYIYYADSVKGRFTISRDNAKNSLYLQMNSLRAEDTAVYYCARGAPIGAAAGWFDPWGQGTLVTVSSASTKGPSVFPLAPSSKSTSGGTAALGCLVKDYFPEPVTVSWNSGALTSGVHTFPAVLQSSGLYSLSSVVTVPSSSLGTQTYICNVNHKPSNTKVDKKVEPKSCDKTHTCPPCPAPELLGGPSVFLFPPKPKDTLMISRTPEVTCVVVDVSHEDPEVKFNWYVDGVEVHNAKTKPREEQYNSTYRVVSVLTVLHQDWLNGKEYKCKVSNKALPAPIEKTISKAKGQPREPQVCTLPPSRDELTENQVSLTCLVKGFYPSDIAVEWESNGQPENNYKTTPPVLDSDGSFFLYSWLTVDKSRWQQGNVFSCSVMHEALHNHYTQKSLSLSPG light: DIQMTQSPSSVSASVGDRVTITCRASQGISSWLAWYQQKPGKAPKLLIYAASSLQSGVPSRFSGSGSGTDFTLTISSLQPEDFATYYCQQGVSFPRTFGGGTKVEIKRTVAAPSVFIFPPSDEQLKSGTASVVCLLNNFYPREAKVQWKVDNALQSGNSQESVTEQDSKDSTYSLSSTLTLSKADYEKHKVYACEVTHQGLSSPVTKSFNRGEC",Kd,[1],6.2 nM
same,Kd,[2],8.3 nM
same,"NK cell-mediated lysis of 786-O cells (DELFIA), EC50",[3],0.19 nM
same,"NK cell-mediated lysis of BT474 cells (DELFIA), EC50",[3],0.14 nM
same,"NK cell-mediated lysis of Detroit 562 cells (DELFIA), EC50",[3],0.23 nM
same,"NK cell-mediated lysis of FaDu cells (DELFIA), EC50",[3],0.19 nM
same,"NK cell-mediated lysis of H292 cells (DELFIA), EC50",[3],0.1 nM
same,"NK cell-mediated lysis of H1703 cells (DELFIA), EC50",[3],0.14 nM
same,"NK cell-mediated lysis of H1975 cells (DELFIA), EC50",[3],0.29 nM
same,"NK cell-mediated lysis of HCC4006 cells (DELFIA), EC50",[3],0.24 nM
same,"NK cell-mediated lysis of HCT116 cells (DELFIA), EC50",[3],0.097 nM
same,"NK cell-mediated lysis of HT29 cells (DELFIA), EC50",[3],0.42 nM
same,"NK cell-mediated lysis of KYSE-30 cells (DELFIA), EC50",[3],0.072 nM
same,"long-term NK cell-mediated inhibition of HCT 116 cells (Incucyte, 72 h), EC50",[4],0.16 nM
same,"long-term NK cell-mediated inhibition of HT-29 cells (Incucyte, 72 h), EC50",[4],1.3 nM
same,"long-term NK cell-mediated inhibition of KYSE-30 cells (Incucyte, 72 h), EC50",[4],0.087 nM
same,"long-term NK cell-mediated inhibition of NCI-H292 cells (Incucyte, 72 h), EC50",[4],0.37 nM
same,EC50,[5],4.1 nM
same,EC50,[6],2.6 nM
same,EC50,[7],1.9 nM
same,EC50,[8],2.1 nM
same,EC50,[9],2.5 nM
same,EC50,[10],2.7 nM
same,Kd,[11],7.6 nM
same,koff,[11],0.00088 s⁻¹
same,kon,[11],110000 M⁻¹ s⁻¹
same,koff,[12],0.0016 s⁻¹
same,kon,[12],110000 M⁻¹ s⁻¹
same,Kd,[13],7.6 nM
same,koff,[13],0.00091 s⁻¹
same,kon,[13],120000 M⁻¹ s⁻¹
same,Kd,[14],6.1 nM
same,koff,[14],0.00077 s⁻¹
same,kon,[14],130000 M⁻¹ s⁻¹
same,EC50,[15],3.42 nM
same,Max Fold Over Background (FOB),[15],82.8 fold over background

# From US20230203202A1 (DRAGONFLY THERAPEUTICS, published 2023)
